Measured values: patent US20230227537A1

Target: recombinant prefusion stabilized SARS-CoV-2-2P spike protein (SARS-CoV-2) (UniProt P0DTC2)

Substance: D72-15: VHH72-GS-hIgG1hinge-hIgG1Fc-L234A-L235A-P329G (Fc fusion)
- EC50: 0.014 µg/mL
